Data taken from patent publication US20240034774A1 (Gilead, published 2024).

How the values were obtained:
gp120 Bal = gp120 Bal (HIV (Bal)); test: single-point ELISA at EC50 conc. of A-1
gp120 CAAN = gp120 CAAN (HIV (CAAN)); test: single-point ELISA at EC50 conc. of A-1
gp120 SHIV SF162 P3 = gp120 SHIV SF162 P3 (SHIV SF162 P3); test: single-point ELISA at EC50 conc. of A-1
BSA = BSA (UniProt P02769 25-607); test: single-point ELISA, BSA control

Binder	ELISA A450 (gp120 Bal) [A450]	ELISA A450 (gp120 CAAN) [A450]	ELISA A450 (gp120 SHIV SF162 P3) [A450]	ELISA A450 (BSA) [A450]
1.7.1-1 (antibody, human IgG1, kappa) heavy: QVQLLQSGAEVKKPGASVRVSCEASGYNIRDYFIHWWRQAPGQGLQWVGWINPKTGQPNNPRQFQGRVSLTRHASWDFDTFSFYMDLKALRSDDTAVYFCARQRSDYWDFDVWGSGTQVTVSSASTKGPSVFPLAPSSKSTSGGTAALGCLVKDYFPEPVTVSWNSGALTSGVHTFPAVLQSSGLYSLSSVVTVPSSSLGTQTYICNVNHKPSNTKVDKKVEPKSCDKTHTCPPCPAPELLAGPDVFLFPPKPKDTLMISRTPEVTCVVVDVSHEDPEVKFNWYVDGVEVHNAKTKPREEQYNSTYRVVSVLTVLHQDWLNGKEYKCKVSNKALPLPEEKTISKAKGQPREPQVYTLPPSREEMTKNQVSLTCLVKGFYPSDIAVEWESNGQPENNYKTTPPVLDSDGSFFLYSKLTVDKSRWQQGNVFSCSVLHEALHSHYTQKSLSLSPGK light: DIQMTQSPSSLSASVGDTVTITCQANGYLNWYQQRRGKAPKLLIYDGSKLERGVPSRFSGRRWGQEYNLTINNLQPEDIATYFCQVYEFVVPGTRLDLKRTVAAPSVFIFPPSDEQLKSGTASVVCLLNNFYPREAKVQWKVDNALQSGNSQESVTEQDSKDSTYSLSSTLTLSKADYEKHKVYACEVTHQGLSSPVTKSFNRGEC	0.98	1.04	1.08	0.06
1.8.1-1 (antibody, human IgG1, kappa) heavy: QVQLVQSGAEVTKPGASVRVSCEASGYNIRDYFIHWWRQAPGQGLQWVGWINPKTGQPNNPRQFQGRVSLTRHASWDFDTFSFYMDLKALRSDDTAVYFCARQRSDYWDFDVWGSGTQVTVSSASTKGPSVFPLAPSSKSTSGGTAALGCLVKDYFPEPVTVSWNSGALTSGVHTFPAVLQSSGLYSLSSVVTVPSSSLGTQTYICNVNHKPSNTKVDKKVEPKSCDKTHTCPPCPAPELLAGPDVFLFPPKPKDTLMISRTPEVTCVVVDVSHEDPEVKFNWYVDGVEVHNAKTKPREEQYNSTYRVVSVLTVLHQDWLNGKEYKCKVSNKALPLPEEKTISKAKGQPREPQVYTLPPSREEMTKNQVSLTCLVKGFYPSDIAVEWESNGQPENNYKTTPPVLDSDGSFFLYSKLTVDKSRWQQGNVFSCSVLHEALHSHYTQKSLSLSPGK light: DIQMTQSPSSLSASVGDTVTITCQANGYLNWYQQRRGKAPKLLIYDGSKLERGVPSRFSGRRWGQEYNLTINNLQPEDIATYFCQVYEFVVPGTRLDLKRTVAAPSVFIFPPSDEQLKSGTASVVCLLNNFYPREAKVQWKVDNALQSGNSQESVTEQDSKDSTYSLSSTLTLSKADYEKHKVYACEVTHQGLSSPVTKSFNRGEC	0.86	0.9	0.94	0.06
1.9.1-1 (antibody, human IgG1, kappa) heavy: QVQLVQSGAEVKKPGASVRVSCKASGYNIRDYFIHWWRQAPGQGLQWVGWINPKTGQPNNPRQFQGRVSLTRHASWDFDTFSFYMDLKALRSDDTAVYFCARQRSDYWDFDVWGSGTQVTVSSASTKGPSVFPLAPSSKSTSGGTAALGCLVKDYFPEPVTVSWNSGALTSGVHTFPAVLQSSGLYSLSSVVTVPSSSLGTQTYICNVNHKPSNTKVDKKVEPKSCDKTHTCPPCPAPELLAGPDVFLFPPKPKDTLMISRTPEVTCVVVDVSHEDPEVKFNWYVDGVEVHNAKTKPREEQYNSTYRVVSVLTVLHQDWLNGKEYKCKVSNKALPLPEEKTISKAKGQPREPQVYTLPPSREEMTKNQVSLTCLVKGFYPSDIAVEWESNGQPENNYKTTPPVLDSDGSFFLYSKLTVDKSRWQQGNVFSCSVLHEALHSHYTQKSLSLSPGK light: DIQMTQSPSSLSASVGDTVTITCQANGYLNWYQQRRGKAPKLLIYDGSKLERGVPSRFSGRRWGQEYNLTINNLQPEDIATYFCQVYEFVVPGTRLDLKRTVAAPSVFIFPPSDEQLKSGTASVVCLLNNFYPREAKVQWKVDNALQSGNSQESVTEQDSKDSTYSLSSTLTLSKADYEKHKVYACEVTHQGLSSPVTKSFNRGEC	1.08	0.98	1.23	0.06
1.10.1-1 (antibody, human IgG1, kappa) heavy: QVQLLQSGAAVTKPGASVRVSCEASGYNIRDYFMHWWRQAPGQGLQWVGWINPKTGQPNNPRQFQGRVSLTRHASWDFDTFSFYMDLKALRSDDTAVYFCARQRSDYWDFDVWGSGTQVTVSSASTKGPSVFPLAPSSKSTSGGTAALGCLVKDYFPEPVTVSWNSGALTSGVHTFPAVLQSSGLYSLSSVVTVPSSSLGTQTYICNVNHKPSNTKVDKKVEPKSCDKTHTCPPCPAPELLAGPDVFLFPPKPKDTLMISRTPEVTCVVVDVSHEDPEVKFNWYVDGVEVHNAKTKPREEQYNSTYRVVSVLTVLHQDWLNGKEYKCKVSNKALPLPEEKTISKAKGQPREPQVYTLPPSREEMTKNQVSLTCLVKGFYPSDIAVEWESNGQPENNYKTTPPVLDSDGSFFLYSKLTVDKSRWQQGNVFSCSVLHEALHSHYTQKSLSLSPGK light: DIQMTQSPSSLSASVGDTVTITCQANGYLNWYQQRRGKAPKLLIYDGSKLERGVPSRFSGRRWGQEYNLTINNLQPEDIATYFCQVYEFVVPGTRLDLKRTVAAPSVFIFPPSDEQLKSGTASVVCLLNNFYPREAKVQWKVDNALQSGNSQESVTEQDSKDSTYSLSSTLTLSKADYEKHKVYACEVTHQGLSSPVTKSFNRGEC	0.95	0.94	1.03	0.06
1.11.1-1 (antibody, human IgG1, kappa) heavy: QVQLLQSGAAVTKPGASVRVSCEASGYNIRDYFMHWWRQAPGQGLQWVGWINPKTGQPNNPRQFQGRVSLTRHASWDFDTFSAYMDLKALRSDDTAVYFCARQRSDYWDFDVWGSGTQVTVSSASTKGPSVFPLAPSSKSTSGGTAALGCLVKDYFPEPVTVSWNSGALTSGVHTFPAVLQSSGLYSLSSVVTVPSSSLGTQTYICNVNHKPSNTKVDKKVEPKSCDKTHTCPPCPAPELLAGPDVFLFPPKPKDTLMISRTPEVTCVVVDVSHEDPEVKFNWYVDGVEVHNAKTKPREEQYNSTYRVVSVLTVLHQDWLNGKEYKCKVSNKALPLPEEKTISKAKGQPREPQVYTLPPSREEMTKNQVSLTCLVKGFYPSDIAVEWESNGQPENNYKTTPPVLDSDGSFFLYSKLTVDKSRWQQGNVFSCSVLHEALHSHYTQKSLSLSPGK light: DIQMTQSPSSLSASVGDTVTITCQANGYLNWYQQRRGKAPKLLIYDGSKLERGVPSRFSGRRWGQEYNLTINNLQPEDIATYFCQVYEFVVPGTRLDLKRTVAAPSVFIFPPSDEQLKSGTASVVCLLNNFYPREAKVQWKVDNALQSGNSQESVTEQDSKDSTYSLSSTLTLSKADYEKHKVYACEVTHQGLSSPVTKSFNRGEC	0.93	0.75	0.57	0.09
1.12.15-1 (antibody, human IgG1, kappa) heavy: QVQLLQSGAAVTKPGASVRVSCEASGYNIRDYFIHWVRQAPGQGLQWVGWINPKTGQPNNPRQFQGRVSLTRHASWDFDTFSFYMDLKALRSDDTAVYFCARQRSDYWDFDVWGSGTQVTVSSASTKGPSVFPLAPSSKSTSGGTAALGCLVKDYFPEPVTVSWNSGALTSGVHTFPAVLQSSGLYSLSSVVTVPSSSLGTQTYICNVNHKPSNTKVDKKVEPKSCDKTHTCPPCPAPELLAGPDVFLFPPKPKDTLMISRTPEVTCVVVDVSHEDPEVKFNWYVDGVEVHNAKTKPREEQYNSTYRVVSVLTVLHQDWLNGKEYKCKVSNKALPLPEEKTISKAKGQPREPQVYTLPPSREEMTKNQVSLTCLVKGFYPSDIAVEWESNGQPENNYKTTPPVLDSDGSFFLYSKLTVDKSRWQQGNVFSCSVLHEALHSHYTQKSLSLSPGK light: DIQMTQSPSSLSASVGDTVTITCQANGYLNWYQQRRGKAPKLLIYDGSKLERGVPSRFSGRRWGQEYNLTINNLQPEDIATYFCQVYEFFVPGTRLDLKRTVAAPSVFIFPPSDEQLKSGTASVVCLLNNFYPREAKVQWKVDNALQSGNSQESVTEQDSKDSTYSLSSTLTLSKADYEKHKVYACEVTHQGLSSPVTKSFNRGEC	0.69	0.63	0.53	0.06
